Results from article PMC12070071, “The Drosophila pseudokinase Tribbles translocates to the fat body membrane in response to fasting to modulate insulin sensitivity” (Development (Cambridge, England), 2025).
Substitutions are numbered along the chain they refer to.

T1: Drosophila Tribbles activation loop mutant Trbl^SLE/G, yeast two-hybrid bait (Drosophila, UniProt Q9V3Z1 1-484, SLE/G (replacement of E286 with glycine))
T1 construct: also called pDEST32-Trbl^SLE/G; source: yeast two-hybrid fusion (MaV203 yeast)
T1 sequence (looked up): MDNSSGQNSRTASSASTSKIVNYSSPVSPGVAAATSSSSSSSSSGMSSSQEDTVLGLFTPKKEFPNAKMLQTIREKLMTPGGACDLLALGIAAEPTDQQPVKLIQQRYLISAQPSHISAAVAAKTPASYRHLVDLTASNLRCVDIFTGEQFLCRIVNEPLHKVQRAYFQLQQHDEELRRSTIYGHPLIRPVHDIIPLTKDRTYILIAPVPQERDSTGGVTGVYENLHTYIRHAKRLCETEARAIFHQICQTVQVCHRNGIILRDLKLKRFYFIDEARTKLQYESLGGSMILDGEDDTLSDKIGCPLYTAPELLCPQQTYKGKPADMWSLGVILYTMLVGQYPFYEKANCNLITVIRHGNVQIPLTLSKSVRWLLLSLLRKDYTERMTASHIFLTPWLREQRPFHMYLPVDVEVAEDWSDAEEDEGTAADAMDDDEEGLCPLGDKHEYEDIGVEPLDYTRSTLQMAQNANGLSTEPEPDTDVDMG

B1: Drosophila Tribbles (Trbl), wild type, yeast two-hybrid fusion (natural protein, UniProt Q9V3Z1 1-484, looked up)
chain: T1 sequence (looked up) with G286E
notes: Tribbles (Trbl), Drosophila pseudokinase; WT Trbl ORF; One molecule for both two-hybrid copies: each copy carries only one of the two tags; also called WT Trbl; pDEST32-Trbl; source: yeast two-hybrid fusion (MaV203 yeast)
B2: Drosophila Akt, yeast two-hybrid prey (pDEST22-dAkt) (natural protein, UniProt Q8INB9 1-611, looked up)
chain: MNYLPFVLQRRSTVVASAPAPGSASRIPESPTTTGSNIINIIYSQSTHPNSSPTSGSAEKFSWQQSWPSRTSAAPTHDSGTMSINTTFDLSSPSVTSGHALTEQTQVVKEGWLMKRGEHIKNWRQRYFVLHSDGRLMGYRSKPADSASTPSDFLLNNFTVRGCQIMTVDRPKPFTFIIRGLQWTTVIERTFAVESELERQQWTEAIRNVSSRLIDVGEVAMTPSEQTDMTDVDMATIAEDELSEQFSVQGTTCNSSGVKKVTLENFEFLKVLGKGTFGKVILCREKATAKLYAIKILKKEVIIQKDEVAHTLTESRVLKSTNHPFLISLKYSFQTNDRLCFVMQYVNGGELFWHLSHERIFTEDRTRFYGAEIISALGYLHSQGIIYRDLKLENLLLDKDGHIKVADFGLCKEDITYGRTTKTFCGTPEYLAPEVLDDNDYGQAVDWWGTGVVMYEMICGRLPFYNRDHDVLFTLILVEEVKFPRNITDEAKNLLAGLLAKDPKKRLGGGKDDVKEIQAHPFFASINWTDLVLKKIPPPFKPQVTSDTDTRYFDKEFTGESVELTPPDPTGPLGSIAEEPLFPQFSYQGDMASTLGTSSHISTSTSLASMQ
notes: Akt kinase, Drosophila (dAkt); Akt open reading frame amplified from an Akt cDNA (Origene); source: yeast two-hybrid fusion (MaV203 yeast)

Legend:
[1] = molecular target: T1, Drosophila Tribbles activation loop …; test: two-hybrid; MaV203 yeast; bait in pDEST32, prey in pDEST22; colony growth of co-transformants on media with increasing concentrations of 3-AT (His3 reporter); conditions: partners not purified
[2] = molecular target: B1; test: as above; conditions: partners not purified

highest 3AT concentration with growth [1] [mM 3AT]	highest 3AT concentration with growth [2] [mM 3AT]	Binder
100	–	B1
100	50	B2
